The text below walks through data of EP2289541A1.

The target in the assay is low density lipoprotein receptor-related protein (LRP). The experiment in a line: cell-based or functional assay.
Setting [1] is: scale: % of passage versus filter for alteplase alone.

As to “DSPAα1 (Desmoteplase) (from UniProt P98119 37-477) (enzyme)”, the % of abluminal alteplase (alteplase transport across in vitro BBB, zymography assay; alteplase 0.3 µM and DSPAalpha1 0.3 µM) (% of abluminal alteplase alone) was 46.6. Under setting [1], the alteplase (% of passage versus filter) (alteplase translocation across in vitro BBB, spectrozyme assay; alteplase 0.3 µM and DSPAalpha1 0.3 µM) is 67.

“DSPAα2 (from UniProt P15638 37-477) (enzyme)” showed a % of abluminal alteplase (alteplase transport across in vitro BBB, zymography assay; alteplase 0.3 µM and DSPAalpha 2 0.3 µM) (% of abluminal alteplase alone) of 25.1. This substance displayed an alteplase (% of passage versus filter) (alteplase translocation across in vitro BBB, spectrozyme assay; alteplase 0.3 µM and DSPAalpha2 0.3 µM) under setting [1] of 61.9.

“Reteplase (from UniProt P00750 36-562) (enzyme)”: the % of abluminal alteplase (alteplase transport across in vitro BBB, zymography assay; alteplase 0.3 µM and Reteplase 0.3 µM) (% of abluminal alteplase alone) was 51.6.
